Source: US20180291072

Columns and labels:
[1] = biological target: KLAK-sFt-GFP fusion peptide (pro-apoptotic peptide-ferritin monomer fragment-linker-GFP fusion polypeptide)
[2] = biological target: wFt-GFP fusion peptide
[3] = biological target: sFt-GFP fusion peptide
[4] = biological target: type II fusion peptide (pro-apoptotic peptide-linker-ferritin monomer fragment-linker-GFP fusion polypeptide)

B1: Recombinant MMP-2 (protein)
chain: YNFFPRKPKWDKNQITYRIIGYTPDLDPETVDDAFARAFQVWSDVTPLRFSRIHDGEADIMINFGRWEHGDGYPFDGKDGLLAHAFAPGTGVGGDSHFDDDELWTLGEGQVVRVKYGNADGEYCKFPFLFNGKEYNSCTDTGRSDGFLWCSTTYNFEKDGKYGFCPHEALFTMGGNAEGQPCKFPFRFQGTSYDSCTTEGRTDGYRWCGTTEDYDRDKKYGFCPETAMSTVGGNSEGAPCVFPFTFLGNKYESCTSAGRSDGKMWCATTANYDDDRKWGFCPDQGYSLFLVAAHEFGHAMGLEHSQDPGALMAPIYTYTKNFRLSQDDIKGIQELYGASPDIDLGTGPTPTLGPVTPEICKQDIVFDGIAQIRGEIFFFKDRFIWRTVTPRDKPMGPLLVATFWPELPEKIDAVYEAPQEEKAVFFAGNEYWIYSASTLERGYPKPLTSLGLPPDVQRVDAAFNWSKNKKTYIFAGDKFWRYNEVKKKMDPGFPKLIADAWNAIPDNLDAVVDLQGGGHSYFFKGAYYLKLENQSLKSVKFGSIKSDWLGC
With B1 the “linker cleavage, SDS-PAGE of products” value [1] was “each linker of type I fusion peptide and type II fusion peptide was cleaved, and products generated by the linker cleavage were observed in a concentration-dependent manner”, the “linker cleavage, SDS-PAGE” value [2] was “sFt-GFP was more easily cleaved by MMP-2 as compared with wFt-GFP” and the “linker cleavage, SDS-PAGE” value [3] was “sFt-GFP was more easily cleaved by MMP-2 as compared with wFt-GFP”. For the same protein, the “linker cleavage, SDS-PAGE of products” value [4] was “each linker of type I fusion peptide and type II fusion peptide was cleaved, and products generated by the linker cleavage were observed in a concentration-dependent manner”.
